Where “and” joins values, the source holds several entries; their conditions need not be identical. Identical values can stand only once.
Target: T1, rhDLL4 (recombinant human Delta-like 4) (Homo sapiens, UniProt Q9NR61)
T1 construct: Delta-like 4 (DLL4), human, recombinant
Test: SPR; Biacore X100; HCLC or H3L2 captured (up to 2,000 RU) by anti-human IgG Fc antibody immobilised on a CM5 chip; rhDLL4 up to 100 nM flowed; 25 °C, 30 μl/min; 1:1 binding model; KD from kd/ka
Conditions: both partners purified

T1 sequence (Q9NR61 27-685, stated change not applied): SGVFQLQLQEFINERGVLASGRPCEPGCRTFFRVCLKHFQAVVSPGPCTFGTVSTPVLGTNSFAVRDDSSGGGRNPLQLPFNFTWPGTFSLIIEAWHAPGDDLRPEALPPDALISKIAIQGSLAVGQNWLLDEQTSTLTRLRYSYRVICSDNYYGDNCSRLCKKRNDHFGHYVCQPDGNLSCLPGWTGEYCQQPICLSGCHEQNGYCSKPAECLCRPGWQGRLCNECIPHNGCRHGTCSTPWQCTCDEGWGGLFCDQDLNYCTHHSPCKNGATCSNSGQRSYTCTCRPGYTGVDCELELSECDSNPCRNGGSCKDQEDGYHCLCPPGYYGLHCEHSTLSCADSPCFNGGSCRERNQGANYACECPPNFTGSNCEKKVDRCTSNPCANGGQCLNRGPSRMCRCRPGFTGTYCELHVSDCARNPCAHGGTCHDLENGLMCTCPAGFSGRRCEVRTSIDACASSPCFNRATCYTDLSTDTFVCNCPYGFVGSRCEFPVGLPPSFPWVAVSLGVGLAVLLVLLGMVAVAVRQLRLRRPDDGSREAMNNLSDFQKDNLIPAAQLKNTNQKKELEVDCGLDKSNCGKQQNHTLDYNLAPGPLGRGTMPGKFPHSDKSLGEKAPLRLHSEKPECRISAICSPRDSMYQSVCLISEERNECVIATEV

Kd | koff | kon | Binder
1.14 pM and 1.41 pM | 2.42e-05 s⁻¹ | 1.72e+07 M⁻¹ s⁻¹ | HCLC, murine-human chimeric anti-DLL4 antibody (VH and VL of MMGZ01 on human constant regions) (antibody, V domains shown, as the VH of m6; as the VL of m6; Full-length IgG1; also called chimeric antibody; source: CHO-s, transiently transfected, in supernatant) VH: EVQLEESGTELARPGASVKLSCKASGYIFSGYWMQWIKQRPGQGLEWIGAIYPGDGDTRYTQKFKGKATLTADKSSSTAYMQLSSLASEDSAVYYCAGGNFFFDYWGLGTTLAVSS VL: DIVITQSPALMAASPGEKVTITCSVSSSISSSYLHWYQQKSGISPKPWIYGTSNLASGVPARFSGSGSGTSYSLTITSMEAEDAATYYCQQWSSSPLTFGAGTKLELK
2.26 pM | 2.59e-05 s⁻¹ | 1.15e+07 M⁻¹ s⁻¹ | H3L2, humanized anti-DLL4 antibody (VH3, VL2) (antibody, V domains shown, Full-length IgG1; also called humanized antibody; source: CHO-s, transiently transfected, in supernatant) VH: QVQLVQSGAEVKKPGSSVKVSCKASGYTFSGYWMQWIKQAPGQGLEWIGAIYPGDGDTRYTQKFKGRATLTADKSTSTAYMELSSLRSEDTAVYYCAGGNFFFDYWGQGTLVTVSS VL: EIVITQSPDFQSVTPKEKVTITCSVSSSISSSYLHWYQQKPDQSPKPWIYGTSNLASGVPSRFSGSGSGTDYTLTINSLEAEDAATYYCQQWSSSPLTFGQGTKLEIK

Reference: paper PMC4908374, “A humanized anti-DLL4 antibody promotes dysfunctional angiogenesis and inhibits breast tumor growth” (Scientific Reports, 2016)
